Source: PMC9455977, “Deciphering the Regulatory Circuits of RA3 Replication Module - Mechanisms of the Copy Number Control”

Assays:
Settings in all cases: protein: recombinant; tags: N-terminal His6; chain copies: 2; label: none (ethidium bromide stain); blunt
RepA (His6-RepA) [1] = molecular target: T1, RepA (His6-RepA) (plasmid RA3 (IncU, isolated from …, UniProt Q209K0 1-98)); experiment: EMSA; no binding up to 4 uM RepA
T1 sequence: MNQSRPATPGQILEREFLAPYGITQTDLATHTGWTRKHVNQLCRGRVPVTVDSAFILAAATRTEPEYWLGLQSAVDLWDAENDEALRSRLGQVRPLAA

RepA (His6-RepA) [2] = molecular target: T1, RepA (His6-RepA); experiment: EMSA; bound at 0.1 uM RepA; 25 mM Tris-HCl pH 8.0, 5 mM MgCl2, 40 mM NaCl, 0.5 mg/mL BSA, 30 min at 37 C, 20 uL; 30 ng PCR fragment (0.8% agarose) or 150 ng ds oligo (10% native PAGE), 0.5x TBE
RepA (His6-RepA) [3] = molecular target: T1, RepA (His6-RepA); experiment: EMSA; no binding up to 4 uM RepA; 25 mM Tris-HCl pH 8.0, 5 mM MgCl2, 40 mM NaCl, 0.5 mg/mL BSA, 30 min at 37 C, 20 uL; 30 ng PCR fragment (0.8% agarose) or 150 ng ds oligo (10% native PAGE), 0.5x TBE

B1: IR2* (dsDNA)
DNA 1: AAACAGTCGACTCTGATGAGGGC
DNA 2: GCCCTCATCAGAGTCGACTGTTT
binding result (RepA (His6-RepA) [1]): no binding

B2: IR1 (dsDNA)
DNA 1: TTGAAGTTTACCAACTAGGTTACACTTCAA
DNA 2: TTGAAGTGTAACCTAGTTGGTAAACTTCAA
binding result (RepA (His6-RepA) [2]): binds

B3: IR2 (dsDNA)
DNA 1: AAACACATCATTCTGATGAGGGC
DNA 2: GCCCTCATCAGAATGATGTGTTT
binding result (RepA (His6-RepA) [3]): no binding
